Positions count from the first letter of the chain named. Numbers in names are those of the source. Like-named read-outs stand apart in the source and are kept apart here.
B1: Myc-hFis1[32-152]GGIDGG (domain or fragment, human, UniProt Q9Y3D6 32-152, looked up)
chain: KSTQFEYAWCLVRSKYNDDIRKGIVLLEELLPGGIDGGRDYVFYLAVGNYRLKEYEKALKYVRGLLQTEPQNNQAKELERLIDKAMKKDGLVGMAIVGGMALGVAGLAGLIGLAVSKSKS
B2: Fis/OMP (other, UniProt Q9Y3D6 1-120, looked up)
chain: MEAVLNELVSVEDLLKFEKKFQSEKAAGSVSKSTQFEYAWCLVRSKYNDDIRKGIVLLEELLPKGSKEEQRDYVFYLAVGNYRLKEYEKALKYVRGLLQTEPQNNQAKELERLIDKAMKKPIFMVLVPVFALTMVAAWAFMRYRQQL
B3: Myc-hFis1[32-152]Δα5 (domain or fragment, human, UniProt Q9Y3D6 32-152, looked up)
chain: KSTQFEYAWCLVRSKYNDDIRKGIVLLEELLPKGSKEEQRDYVFYLAVGNYRLKENQAKELERLIDKAMKKDGLVGMAIVGGMALGVAGLAGLIGLAVSKSKS
B4: Myc-hFis1[32-152] (domain or fragment, human, UniProt Q9Y3D6 32-152, looked up)
chain: KSTQFEYAWCLVRSKYNDDIRKGIVLLEELLPKGSKEEQRDYVFYLAVGNYRLKEYEKALKYVRGLLQTEPQNNQAKELERLIDKAMKKDGLVGMAIVGGMALGVAGLAGLIGLAVSKSKS
B5: Myc-hFis1[32-152]-Y87A (domain or fragment, human, UniProt Q9Y3D6 32-152, looked up)
chain: B4 chain with Y56A
B6: Myc-hFis1[92-152] (domain or fragment, human, UniProt Q9Y3D6 92-152, looked up)
chain: KYVRGLLQTEPQNNQAKELERLIDKAMKKDGLVGMAIVGGMALGVAGLAGLIGLAVSKSKS

Key:
[1] = biological target: the molecule itself; test: cross-linking
[2] = biological target: the molecule itself; test: cross-linking; remark: listed apart in the source

| Protein | fold decrease in dimer formation against Myc-hFis1[32-152] [1] [fold] | stoichiometry N [1] | stoichiometry N [2] |
| --- | --- | --- | --- |
| B1 | ~3 | – | – |
| B2 | – | 2 | – |
| B3 | ~8 | – | – |
| B4 | – | 5 | 4 |
| B5 | – | 2 | – |
| B6 | – | 2 | – |
